Assay results as given in IntAct's records for PubMed 11579209.

B1: Tyrosine-protein phosphatase non-receptor type 1 (Homo sapiens), P18031 (parent)
chain: MEMEKEFEQIDKSGSWAAIYQDIRHEASDFPCRVAKLPKNKNRNRYRDVSPFDHSRIKLHQEDNDYINASLIKMEEAQRSYILTQGPLPNTCGHFWEMVWEQKSRGVVMLNRVMEKGSLKCAQYWPQKEEKEMIFEDTNLKLTLISEDIKSYYTVRQLELENLTTQETREILHFHYTTWPDFGVPESPASFLNFLFKVRESGSLSPEHGPVVVHCSAGIGRSGTFCLADTCLLLMDKRKDPSSVDIKKVLLEMRKFRMGLIQTADQLRFSYLAVIEGAKFIMGDSSVQDQWKELSHEDLEPPPEHIPPPPRPPKRILEPHNGKCREFFPNHQWVKEETQEDKDCPIKEEKGSPLNAAPYGIESMSQDTEVRSRVVGGSLRGAQAASPAKGEPSLPEKDEDHALSYWKPFLVNMCVATVLTAGAYLCYRFLFNSNT

Variants of: B1
Conditions: with insr_human INSR

Row | Variant | effect of a mutation on the interaction
1 | S50D | disrupting interaction

Variants of: B1
Conditions: with insr_human INSR
Remark: another data set of the same source

Row | Variant | effect of a mutation on the interaction
2 | S50A | decreasing interaction
